From IntAct's records for PubMed 21730963

B1: Transcriptional regulatory protein DOT6 (Saccharomyces cerevisiae), P40059 (parent)
chain: MSISTSLNSASIHLSSMDTHPQLHSLTRQPHSSSTAMSKNEAQESSPSLPASSSSSTSASASASSKNSSKNPSSWDPQDDLLLRHLKEVKKMGWKDISQYFPNRTPNACQFRWRRLKSGNLKSNKTALIDINTYTGPLKITHGDETANAQQKPSKKVEENVLTEDTAEFTTTSSIPIPSRKTSLPSFHASMSFSQSPSNVTPTTIVSNAASSMPFAPPTLPAALPHHPHQHLHHHPHHKTLKPRSNSHSFTNSLNQDPIVRSNDEEKYGFIPKVFVRSRRSSFAYPQQVAITTTPSSPNSSHVLLSSKSRRGSLANWSRRSSFNVSSNNTSRRSSMILAPNSVSNIFNVNNSGSNTASTSNTNSRRESVIKKEFQQRLNNLSNSGGPTSNNGPIFPNSYTFMDLPHSSSVSSSSTLHKSKRGSFSGHSMKSSCNPTNLWSKDEDALLMENKKRNLSVMELSILLPQRTEVEIQWRLNALSSDADMLSPTHSPQKTLSKKTCPRMFKSGSTTDDDKGSDKEDVMGDGSNDDDEDNVDPLHRAKQSSNKTVFSSSSSNISSKDVSPDPIFSPDPADDSSNTSDAGSRCTITSDTSSSAATMNRTPNSKNPQDIALLNNFRSEAITPRPKPSSTTTSITTETTNNMINHSSSTTTTTNNSPLPSINTIFKDML
partner: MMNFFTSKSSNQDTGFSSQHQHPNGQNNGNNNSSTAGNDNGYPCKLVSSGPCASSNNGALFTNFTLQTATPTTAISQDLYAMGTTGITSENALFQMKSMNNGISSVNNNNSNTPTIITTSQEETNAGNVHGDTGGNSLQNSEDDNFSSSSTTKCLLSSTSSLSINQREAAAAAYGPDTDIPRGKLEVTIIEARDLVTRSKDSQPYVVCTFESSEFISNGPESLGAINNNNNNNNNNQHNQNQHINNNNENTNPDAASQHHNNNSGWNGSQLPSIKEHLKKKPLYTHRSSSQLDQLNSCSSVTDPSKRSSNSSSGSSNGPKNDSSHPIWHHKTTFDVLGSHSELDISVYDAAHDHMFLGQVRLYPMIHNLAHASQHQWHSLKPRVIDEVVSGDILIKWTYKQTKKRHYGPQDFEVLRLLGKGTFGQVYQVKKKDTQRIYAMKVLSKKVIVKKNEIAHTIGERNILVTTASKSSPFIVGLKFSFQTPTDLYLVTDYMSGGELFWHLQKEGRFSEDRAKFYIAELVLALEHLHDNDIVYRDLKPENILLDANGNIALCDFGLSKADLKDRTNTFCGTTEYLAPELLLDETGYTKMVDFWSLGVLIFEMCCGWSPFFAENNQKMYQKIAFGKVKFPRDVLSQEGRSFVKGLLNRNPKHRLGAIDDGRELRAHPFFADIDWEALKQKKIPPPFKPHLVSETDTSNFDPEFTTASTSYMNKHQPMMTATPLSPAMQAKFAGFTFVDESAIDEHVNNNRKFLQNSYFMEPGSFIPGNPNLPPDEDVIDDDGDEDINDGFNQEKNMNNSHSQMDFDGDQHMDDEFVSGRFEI
B2: Transcriptional regulatory protein TOD6 (Saccharomyces cerevisiae), P34219 (parent)
chain: MTLPKLSSVSVSSGHVSANSHGFSILSKHPHPNNLVHSHSLSHTNAKSHLPISSTSTKENSTNKEEAESLKKNNPSSWDPSDDIKLRHLKEIKNLGWKEIAHHFPNRTPNACQFRWRRLKSGNLKSNKTAVIDINKLFGVYATGDATPSAGTPSAEEAVKEEAVEDEDITAGSSAIEDSPPDFKPLVKPKYMDRKLITQRSTSTFSDHEPQHTKPRKLFVKPRSFSHSITTNTPNVKTAQQTNLSLYNTTSAKTNKAVNSNDYENIGLVPKIIIRSRRNSFIPSTQIPHSTTKTRKNSHSVISSRRSSFNMMHSRRSSFNSHAPTEPISRRASLVVSPYMSPRRLSTSQSVHYHPQHQYYLNPIASPNCKTDHANDKITHTRTFLDMQKFANKHPWSREDDEVLLNNTKDKQNHLSPLEISIVLPNNRSELEIQQRMDYLKRKGRVSGFHTNEGCKDEEEEDDIDPLHKENGINTPSQQSQNYGMLEAKHDNPKSSELSSMTSANDIRNEQDELPGINSIFKNIF
partner: B1 partner
B3: Serine/threonine-protein kinase SCH9 (Saccharomyces cerevisiae), P11792 (parent)
chain: B1 partner
partner: B2 chain
B4: Serine/threonine-protein kinase SCH9 (Saccharomyces cerevisiae), P11792 (parent)
chain: B1 partner
partner: B1 chain
B5: Serine/threonine-protein kinase SCH9 (Saccharomyces cerevisiae), P11792 (parent)
chain: B1 partner
partner: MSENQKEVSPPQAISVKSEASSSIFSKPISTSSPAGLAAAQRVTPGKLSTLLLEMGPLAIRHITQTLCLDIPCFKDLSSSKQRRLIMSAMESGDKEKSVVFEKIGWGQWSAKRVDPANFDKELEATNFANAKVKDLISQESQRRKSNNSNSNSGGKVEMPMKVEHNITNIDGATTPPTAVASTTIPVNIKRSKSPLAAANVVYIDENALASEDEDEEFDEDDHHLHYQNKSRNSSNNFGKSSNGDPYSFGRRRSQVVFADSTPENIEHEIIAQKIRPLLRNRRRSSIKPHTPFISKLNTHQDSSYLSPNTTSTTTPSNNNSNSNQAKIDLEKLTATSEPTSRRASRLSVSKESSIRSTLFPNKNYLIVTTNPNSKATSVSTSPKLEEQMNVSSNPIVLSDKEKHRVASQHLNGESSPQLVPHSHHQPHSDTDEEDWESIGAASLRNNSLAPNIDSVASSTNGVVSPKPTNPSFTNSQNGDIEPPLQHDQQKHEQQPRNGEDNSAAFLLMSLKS

Variants of: B1
Conditions: with sch9_yeast SCH9, P11792

Row | Variant | effect of a mutation on the interaction
1 | T5A | decreasing interaction

Variants of: B2
Conditions: with sch9_yeast SCH9, P11792

Row | Variant | effect of a mutation on the interaction
2 | MTLPKASSVSVSSGHVSANSHGFSILSKHPHPNNLVHSHSLSHTNAKSHLPISSTSTKENSTNKEEAESLKKNNPSSWDPSDDIKLRHLKEIKNLGWKEIAHHFPNRTPNACQFRWRRLKSGNLKSNKTAVIDINKLFGVYATGDATPSAGTPSAEEAVKEEAVEDEDITAGSSAIEDSPPDFKPLVKPKYMDRKLITQRSTSTFSDHEPQHTKPRKLFVKPRSFSHSITTNTPNVKTAQQTNLSLYNTTSAKTNKAVNSNDYENIGLVPKIIIRSRRNSFIPSTQIPHSTTKTRKNSHSVISSRRSSFNMMHSRRSSFNSHAPTEPISRRASLVVSPYMSPRRLSTSQSVHYHPQHQYYLNPIASPNCKTDHANDKITHTRTFLDMQKFANKHPWSREDDEVLLNNTKDKQNHLSPLEISIVLPNNRSELEIQQRMDYLKRKGRVSGFHTNEGCKDEEEEDDIDPLHKENGINTPSQQSQNYGMLEAKHDNPKSSELSSMTSANDIRNEQDELPGINSIFKNIF [L6A] | decreasing interaction

Variants of: B3
Conditions: with tod6_yeast TOD6, P34219

Row | Variant | effect of a mutation on the interaction
3 | T6E | increasing interaction

Variants of: B4
Conditions: with dot6_yeast DOT6, P40059

Row | Variant | effect of a mutation on the interaction
4 | T6E | increasing interaction

Variants of: B5
Conditions: with stb3_yeast STB3, Q12427

Row | Variant | effect of a mutation on the interaction
5 | T6E | increasing interaction
